Laboratory results as given in publication PMC4066776, “Molecular determinants of the DprA−RecA interaction for nucleation on ssDNA” (Nucleic Acids Research, 2014).

What was measured:
[1] = biological target: T1, S. pneumoniae RecA lacking the first 28 residues (Δ28), purified (S. pneumoniae, UniProt P0A451 29-388); assay: pull-down; pull-down on magnetic beads using purified proteins; which partner was on the beads is told only in the supplementary methods; conditions: both partners purified
T1 construct: RecA, Streptococcus pneumoniae, locus Sp1940, the 28 first residues removed; also called Δ28RecA; source: E. coli, purified (Ni-NTA column, gel filtration)

[2] = biological target: the molecule itself; assay: SAXS; scattering curve of 5KA DprA in solution superimposed on that of WT DprA (the latter taken from ref. 18)

B1: S. pneumoniae DprA K119A/K144A/K175A/K202A/K225A (5KA), purified (natural protein)
chain: MKITNYEIYKLKKSGLTNQQILKVLEYGENVDQELLLGDIADISGCRNPAVFMERYFQIDDAHLSKEFQKFPSFSILDDCYPWDLSEIYDAPVLLFYKGNLDLLKFPKVAVVGSRACSAQGAKSVEKVIQGLENELVIVSGLAAGIDTAAHMAALQNGGKTIAVIGTGLDVFYPAANKRLQDYIGNDHLVLSEYGPGEQPLAFHFPARNRIIAGLCRGVIVAEAAMRSGSLITCERAMEEGRDVFAIPGSILDGLSDGCHHLIQEGAKLVTSGQDVLAEFEF
notes: DprA, Streptococcus pneumoniae, locus Sp1266, five lysines K119/K144/K175/K202/K225 mutated to alanines; also called 5KADprA; 5KA mutant; source: E. coli, purified (Ni-NTA column, gel filtration)
[1]
  binding result: binds
[2]
  stoichiometry N: 2
